This note sets out measurements from patent US20040171105A1.

For the experiment, the target named is GST fusion form of full-length human cIAP1 (human) (UniProt Q13490). As to the kind of experiment: cell-based or functional assay.
GST fusion form of full-length human cIAP1 (human), sequence (Q13490 whole entry, the tested form may be a part): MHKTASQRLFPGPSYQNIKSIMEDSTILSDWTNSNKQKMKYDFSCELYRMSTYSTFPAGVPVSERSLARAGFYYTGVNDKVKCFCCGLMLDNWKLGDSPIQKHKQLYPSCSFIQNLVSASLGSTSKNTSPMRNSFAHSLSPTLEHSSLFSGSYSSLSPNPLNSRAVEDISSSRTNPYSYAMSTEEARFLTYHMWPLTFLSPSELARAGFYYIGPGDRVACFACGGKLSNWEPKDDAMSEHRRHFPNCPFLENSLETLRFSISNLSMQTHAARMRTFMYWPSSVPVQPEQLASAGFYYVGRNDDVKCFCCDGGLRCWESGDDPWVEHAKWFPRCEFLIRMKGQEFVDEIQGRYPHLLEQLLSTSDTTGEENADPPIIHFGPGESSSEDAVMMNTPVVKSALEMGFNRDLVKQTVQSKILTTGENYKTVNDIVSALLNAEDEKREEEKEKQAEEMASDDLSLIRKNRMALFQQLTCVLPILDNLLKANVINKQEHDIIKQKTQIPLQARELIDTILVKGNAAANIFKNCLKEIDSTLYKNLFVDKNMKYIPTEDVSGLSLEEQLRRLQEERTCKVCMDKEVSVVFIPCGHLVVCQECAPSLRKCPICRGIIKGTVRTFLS

“Omi SA (protease dead mutant Omi S306→Ala, C-terminal hexa-His tagged) (from UniProt O43464 134-458) (enzyme)” showed a relief of cIAP1 inhibition of caspase activity in HeLa extracts of 75 nM.
